Measured values published in the supplement of paper PMC9170038.

Tested on: MS2 coat protein
Experiment: apparent KD of MS2 coat protein; designed switch direction (-1 OFF switch, 1 ON switch): 1; higher = weaker reporter binding
Procedure, shortened: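 SNAP-549-labelled MS2 coat protein was titrated, doubling from 0.7 or 1.5 nM to 3 µM, over designed RNA switches transcribed on Illumina chips by stalled E. coli RNA polymerase. Runs were done without input, with 200 uM small-molecule ligand, or with an oligonucleotide input. Apparent KD is the per-design median over clusters of curve-fitted normalised fluorescence.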

[1] = input ligand: microRNA oligo, concentration not stated
[2] = Eterna round: R95, input ligand: FMN 200 uM
[3] = Eterna round: R95, input ligand: microRNA oligo, concentration not stated
[4] = Eterna round: R95, input ligand: none

## GCAACAGGGUGAGGAUAUCUAUGGACCGACCAUAGAGAAGGCACUGGAAACACAUGAGGAUCACCCAUGUGCCAAAGAACAGUA [Eternabot solution 9] (Eterna round: R96, puzzle: Same State NG 1)
Input ligand: FMN 200 uM
  apparent KD of MS2 coat protein: 17.5 nM
[1]
  apparent KD of MS2 coat protein: 22.4 nM
Input ligand: none
  apparent KD of MS2 coat protein: 28.4 nM

## GUGGUGUAGAUACAGGAUAUGUUGCUCGUAACAUGAGGAUCACCCAUGUAUGUAUGAGAAUGAAUGCAGAAGGGUGCACACCACG [Mat - Same State 2 - Mod of UCT - D77] (puzzle: Same State 2)
[2]
  apparent KD of MS2 coat protein: 13.8 nM
[3]
  apparent KD of MS2 coat protein: 106 nM
[4]
  apparent KD of MS2 coat protein: 159 nM

## GCUACCAUUGAAGCCAACAUGAGGAUCACCCAUGUAUGUUGGUAGGAUAUCGAUUGCUUUGCGAUCGAGAAGGGCUAAGGUAGC [JL SSNG3 1.28] (Eterna round: R96, puzzle: Same State NG 3)
Input ligand: FMN 200 uM
  apparent KD of MS2 coat protein: 52.6 nM
[1]
  apparent KD of MS2 coat protein: 48 nM
Input ligand: none
  apparent KD of MS2 coat protein: 45.1 nM

## CGUCCAGCCUGAGCUGGACAAAAGCAUGUACAUGAGGAUCACCCAUGUUCAUGUACAAGCUUUUUGCUCGUCUUAAC [salish99_208a_r3_039] (puzzle: Sensor for hsa-mir-208a)
[2]
  apparent KD of MS2 coat protein: 660 nM
[3]
  apparent KD of MS2 coat protein: 18.2 nM
[4]
  apparent KD of MS2 coat protein: 616 nM

## GGUCCAGCCUGAGCUGGACAAAAGCAUGUACAUGAGGAUCACCCAUGUCAUGUACAAGCUUUUUGCUCGUCUAAAAU [Mat - hsa-mir-208a - 101] (puzzle: Sensor for hsa-mir-208a)
[2]
  apparent KD of MS2 coat protein: 508 nM
[3]
  apparent KD of MS2 coat protein: 15.8 nM
[4]
  apparent KD of MS2 coat protein: 629 nM

## CUAAAACAUGAGGAUCACCCAUGUCAACAAAGUCGAGGAUAUGGGCAAAUAAAAUAAGAACCAGAAGGCGAAUAAC [salish99_SS1_r3_014] (puzzle: Same State 1)
[3]
  apparent KD of MS2 coat protein: 222 nM

## AGAUCAUGACGAGGAUAUGGAACAUGAGGAUCACCCAUGUAUGUUCCAUAACGCGAACGACGAAUCCAGAAGGCGUCGUGAUCA [Mat - Same State NG 2 - JL mod - D42] (Eterna round: R96, puzzle: Same State NG 2)
Input ligand: FMN 200 uM
  apparent KD of MS2 coat protein: 5.24 nM
[1]
  apparent KD of MS2 coat protein: 21.6 nM
Input ligand: none
  apparent KD of MS2 coat protein: 26.3 nM

## UGGCUGGUGCUAGGAUAUGCAUGAGGCCUCCUCGUAGAAGGAGCACGACAUGAGGAUCACCCAUGUGGCCGUCCGUGGGCGGCU [salish99_SSNG1_r04_015] (Eterna round: R96, puzzle: Same State NG 1)
Input ligand: FMN 200 uM
  apparent KD of MS2 coat protein: 68 nM
[1]
  apparent KD of MS2 coat protein: 44.8 nM
Input ligand: none
  apparent KD of MS2 coat protein: 60.1 nM

## UGUUGUAUUACAGGAUAUCUAUUAGCUUUAUUUAGAGAAGGGUAUUCACAUGAGGAUCACCCAUGUAUAUACGAGGAAGUUGUG [JMF's solution 88] (Eterna round: R96, puzzle: Same State NG 1)
[1]
  apparent KD of MS2 coat protein: 33.6 nM

## GGUGGGUUGCUGCCGGCACAUGAGGAUCACCCAUGUUUUGGGAAGGAUAUGGUACCUAUUUGGUACCAGAAGGUCCCGUUGGUG [salish99_SSNG3_r04_709] (Eterna round: R96, puzzle: Same State NG 3)
Input ligand: FMN 200 uM
  apparent KD of MS2 coat protein: 978 nM
[1]
  apparent KD of MS2 coat protein: 449 nM
Input ligand: none
  apparent KD of MS2 coat protein: 898 nM

## UUGAUGAACUGAGGAUAUCGAGUCGUCUGUUUUUACAUGAGGAUCACCCAUGUGGGUUGUGGUAUCGAGAAGGCAGAUUACUUA [JR_SSNG2_Sub031] (Eterna round: R96, puzzle: Same State NG 2)
Input ligand: FMN 200 uM
  apparent KD of MS2 coat protein: 1670 nM
[1]
  apparent KD of MS2 coat protein: 974 nM
Input ligand: none
  apparent KD of MS2 coat protein: 2150 nM

## GGUGCCAAUAAAGCCUACAUGAGGAUCACCCAUGUAUGUAGGCAGGAUAUCGUUUGCUUUGCAAACGAGAAGGGCUGAGGCACC [JL SSNG3 1.18] (Eterna round: R96, puzzle: Same State NG 3)
Input ligand: FMN 200 uM
  apparent KD of MS2 coat protein: 16.8 nM
[1]
  apparent KD of MS2 coat protein: 28.6 nM
Input ligand: none
  apparent KD of MS2 coat protein: 38.6 nM

## AAUAAUCUAUCUGAGGAUAUCAUGAAAUAAACAUGAGGAUCACCCAUGUGCAGGAAAACUGCAUAUGAGAAGGCAGAUAGAUUGA [salish99_ss2_r3_020] (puzzle: Same State 2)
[2]
  apparent KD of MS2 coat protein: 43.8 nM
[3]
  apparent KD of MS2 coat protein: 551 nM
[4]
  apparent KD of MS2 coat protein: 1160 nM

## GUUACAUGAGGAUCACCCAUGUAUGUGUGGGAGUAAGUGUCUUAGGAUAUCUGUUAUUUAAUUUGAGAGAAGGAAGAUUGUUGU [JMF's solution 47] (Eterna round: R96, puzzle: Same State NG 3)
Input ligand: FMN 200 uM
  apparent KD of MS2 coat protein: 134 nM
[1]
  apparent KD of MS2 coat protein: 71.7 nM
Input ligand: none
  apparent KD of MS2 coat protein: 89.1 nM

## UUAAAACAUGAGGAUCACCCAUGUAAUAAUAUGGGAGGAUAUCAGAAUGUAUGUAUGUAAUGAGAAGGCCUAAAUU [Mat - Same State 1 - Mod of Eli - D76] (puzzle: Same State 1)
[2]
  apparent KD of MS2 coat protein: 63.6 nM
[3]
  apparent KD of MS2 coat protein: 519 nM
[4]
  apparent KD of MS2 coat protein: 1280 nM

## GCAGAACAUGAGGAUCACCCAUGUCUCUAAUAUUGAGGAUAUGGACACGGUAUAUCCGAACCAGAAGGCGAACUGC [SS1 Teenbexe 17] (puzzle: Same State 1)
[2]
  apparent KD of MS2 coat protein: 27.5 nM
[3]
  apparent KD of MS2 coat protein: 34 nM
[4]
  apparent KD of MS2 coat protein: 41.2 nM

## GCUUCGGCGGUAGGAUAUCUAGGAUAUGGGAAGAGCUAAGCUUGGAAGUCACUUCACCCAGAAGGAGAGAAGGACACCUUCGGG [pwkr ssNG2 2FMN + F9.4] (Eterna round: R96, puzzle: Same State NG 2)
Input ligand: FMN 200 uM
  apparent KD of MS2 coat protein: 230 nM
[1]
  apparent KD of MS2 coat protein: 3.87 nM
Input ligand: none
  apparent KD of MS2 coat protein: 47 nM

## AGUCCAGCGAAAGCUGGACAGAAGCAUGUACAUGAGGAUCACCCAUGUUCAUGUACAAGCUUUUUGCUCGUCUUAAA [JL mod - D95 - 1] (puzzle: Sensor for hsa-mir-208a)
[2]
  apparent KD of MS2 coat protein: 476 nM
[3]
  apparent KD of MS2 coat protein: 14.9 nM
[4]
  apparent KD of MS2 coat protein: 418 nM

## ACUCUACAUGAGGAUCACCCAUGUUGAGCCCAUCAAGGAUAUGGGUCUUAAUCGCGGGUGCCAGAAGGUGAUGGUU [Xesove] (Eterna round: R96, puzzle: Same State 1)
Input ligand: FMN 200 uM
  apparent KD of MS2 coat protein: 313 nM
[1]
  apparent KD of MS2 coat protein: 46.8 nM
Input ligand: none
  apparent KD of MS2 coat protein: 94.3 nM

## GACAGGCAAGCUUUUUUCUCGUAGUGUAAACAUGAGGAUCACCCAUGUGCUCGCCCUAGAUCUUUGGAUCGCAGAAA [Ceedes] (puzzle: Sensor for hsa-mir-208a)
[2]
  apparent KD of MS2 coat protein: 39.5 nM
[3]
  apparent KD of MS2 coat protein: 22.6 nM
[4]
  apparent KD of MS2 coat protein: 50.1 nM

## GCUCGACGUAUGGCCUACAUGAGGAUCACCCAUGUGACUGGGCAGGAUAUCUAGAUGCAGAAUGUAGAGAAGGGCCCGUCGAGC [SameState NG3 #48] (Eterna round: R96, puzzle: Same State NG 3)
Input ligand: FMN 200 uM
  apparent KD of MS2 coat protein: 244 nM
[1]
  apparent KD of MS2 coat protein: 74 nM
Input ligand: none
  apparent KD of MS2 coat protein: 194 nM

## GGUUUAGUCAGGCACAAUUGCGCCUGAAAACAUGAGGAUCACCCAUGUUUGGGACAAGCUUUGCUCCUCGUCUUGCA [Enzati] (puzzle: Sensor for hsa-mir-208a)
[2]
  apparent KD of MS2 coat protein: 306 nM
[3]
  apparent KD of MS2 coat protein: 68.1 nM
[4]
  apparent KD of MS2 coat protein: 385 nM

## UCUUGGUUUUUGCUCGUUUUUUGUGUUGAACAUGAGGAUCACCCAUGUAUUGUACGGUCCGGUUUGAUAGUGGUCCA [JMF 45] (puzzle: Sensor for hsa-mir-208a)
[2]
  apparent KD of MS2 coat protein: 111 nM
[3]
  apparent KD of MS2 coat protein: 71.6 nM
[4]
  apparent KD of MS2 coat protein: 120 nM

## AAAGAACAUGAGGAUCACCCAUGUGGAAGAGGCACAGGAUAUCACCUCGCAAGUGCAAGGUGAGAAGGGUGAUGAU [Islaonen] (puzzle: Same State 1)
[2]
  apparent KD of MS2 coat protein: 123 nM
[3]
  apparent KD of MS2 coat protein: 425 nM
[4]
  apparent KD of MS2 coat protein: 205 nM

## CGGCGCUGUCGAGAGGAUAUGCGGUGAUGGACAUGAGGAUCACCCAUGUUAGCGAUAGCAUCACGGUAGAAGGCUCUUACGCCUG [Soteed Omei mod 23] (Eterna round: R96, puzzle: Same State 2)
Input ligand: FMN 200 uM
  apparent KD of MS2 coat protein: 217 nM
[1]
  apparent KD of MS2 coat protein: 257 nM
Input ligand: none
  apparent KD of MS2 coat protein: 717 nM

## AUAAUACAUGAGGAUCACCCAUGUCAACAAAGUCGAGGAUAUGGGCAAAUAAAAUAAGAACCAGAAGGCGAAUAAU [salish99_ss1_r3_046] (puzzle: Same State 1)
[2]
  apparent KD of MS2 coat protein: 34.2 nM
[3]
  apparent KD of MS2 coat protein: 359 nM
[4]
  apparent KD of MS2 coat protein: 240 nM

## GUGGUCUGACAUGAGGAUCACCCAUGUGGAAUAAAUACGGGUUAGGAUAUCUUGAGGAUCACCCAAGAGAAGGGAUCGAUUGUU (Eterna round: R96, puzzle: Same State NG 3)
[1]
  apparent KD of MS2 coat protein: 36.4 nM

## AUAUAACAUGAGGAUCACCCAUGUCUCUAAAGUCGAGGAUAUGGGCAGGUUAUAUCCGAACCAGAAGGCGGGUUAU [SS1 Teenbexe 8] (puzzle: Same State 1)
[2]
  apparent KD of MS2 coat protein: 177 nM
[3]
  apparent KD of MS2 coat protein: 123 nM
[4]
  apparent KD of MS2 coat protein: 146 nM

## UAGCGCUGUCGAGAGGAUAUGCGGUGAUGGACAUGAGGAUCACCCAUGUUAGCGAUAGCAUUACGGUAGAAGGCUCUACAGCUGU [salish99_ss2_r3_093] (Eterna round: R96, puzzle: Same State 2)
Input ligand: FMN 200 uM
  apparent KD of MS2 coat protein: 38.2 nM
[1]
  apparent KD of MS2 coat protein: 342 nM
Input ligand: none
  apparent KD of MS2 coat protein: 694 nM

## UUAAAACAUGAGGAUCACCCAUGUAAUAAUAUGGGAGGAUAUCAGAUUUAAUUUAAUUUAUGAGAAGGCCUAAAUU [Mat - Same State 1 - Mod of Eli - D61] (puzzle: Same State 1)
[2]
  apparent KD of MS2 coat protein: 58.7 nM
[3]
  apparent KD of MS2 coat protein: 163 nM
[4]
  apparent KD of MS2 coat protein: 512 nM

## GUGGUCAGACAUGAGGAUCACCCAUGUGGAAUAAAUAAGGAAAAGGAUAUGGAAUAUAGGAUAUACCAGAAGGUUUGGUUGGUG (Eterna round: R96, puzzle: Same State NG 3)
[1]
  apparent KD of MS2 coat protein: 83 nM

## GCUAGAAUAAAUGCCUACAUGAGGAUCACCCAUGUAUGUAGGCAGGAUAUCGUUUGCAAAGCAAACGAGAAGGGCCUUACUAGC [Mat - Same State NG 3 - JL Mod - D29] (Eterna round: R96, puzzle: Same State NG 3)
Input ligand: FMN 200 uM
  apparent KD of MS2 coat protein: 21.5 nM
[1]
  apparent KD of MS2 coat protein: 43 nM
Input ligand: none
  apparent KD of MS2 coat protein: 55.7 nM
